Values belong to the substance of their own block, whether it stands above or below them.
What was measured:
[1] = biological target: truncated human CD163 ECD SRCR domain 1-5 fragment with C-terminus histidine tag (HEK293-6E) (human) (UniProt Q86VB7); assay: ratio of EC50 on huCD163 SRCR 1-5 to EC50 on huCD163 ECD
[2] = biological target: truncated human CD163 ECD SRCR domain 1-5 fragment with C-terminus histidine tag (HEK293-6E) (human) (UniProt Q86VB7); assay: binding titration on truncated huCD163 SRCR 1-5
[3] = biological target: human CD163 ECD with a C-terminal 8 histidine tag (HEK293-6E) (human) (UniProt Q86VB7); assay: binding titration on recombinant huCD163 ECD
[4] = biological target: human CD163 expressed on human myeloid cells (M2c macrophages, M2 macrophages, in vitro MDSCs) (human) (UniProt Q86VB7); assay: flow cytometry, APC-labelled anti-huCD163 on M2c macrophages pre-treated with 200 ug/mL goat control polyclonal antibody
[5] = biological target: human CD163 expressed on human myeloid cells (M2c macrophages, M2 macrophages, in vitro MDSCs) (human) (UniProt Q86VB7); assay: flow cytometry, unconjugated anti-CD163 (MAB1607) with labelled secondary antibody on untreated M2c macrophages
[6] = biological target: His-tagged recombinant human CD163 (R&D Systems, No. 1607-CD-050) (human) (UniProt Q86VB7); assay: ELISA, plate coated with 5 ug/mL His-tagged recombinant human CD163, HRP anti-mouse IgG F(ab')2, A450
[7] = biological target: purified recombinant human CD163 protein used for SPR (human) (UniProt Q86VB7); assay: SPR (Biacore T200), CD163 amine-coupled to chip, antibody as analyte, EDTA buffer
[8] = biological target: purified recombinant human CD163 protein used for SPR (human) (UniProt Q86VB7); assay: SPR (Biacore T200), CD163 amine-coupled to chip, antibody as analyte, calcium-containing buffer
[9] = biological target: recombinant murine CD163 (R&D Systems, No. 7435-CD-050) (murine) (UniProt Q2VLH6); assay: ELISA, plate coated with 5 ug/mL recombinant murine CD163, A450

Sequence of human CD163 ECD with a C-terminal 8 histidine tag (HEK293-6E) (human) (Q86VB7 other isoform, or with tags, fused parts or gaps limits assumed): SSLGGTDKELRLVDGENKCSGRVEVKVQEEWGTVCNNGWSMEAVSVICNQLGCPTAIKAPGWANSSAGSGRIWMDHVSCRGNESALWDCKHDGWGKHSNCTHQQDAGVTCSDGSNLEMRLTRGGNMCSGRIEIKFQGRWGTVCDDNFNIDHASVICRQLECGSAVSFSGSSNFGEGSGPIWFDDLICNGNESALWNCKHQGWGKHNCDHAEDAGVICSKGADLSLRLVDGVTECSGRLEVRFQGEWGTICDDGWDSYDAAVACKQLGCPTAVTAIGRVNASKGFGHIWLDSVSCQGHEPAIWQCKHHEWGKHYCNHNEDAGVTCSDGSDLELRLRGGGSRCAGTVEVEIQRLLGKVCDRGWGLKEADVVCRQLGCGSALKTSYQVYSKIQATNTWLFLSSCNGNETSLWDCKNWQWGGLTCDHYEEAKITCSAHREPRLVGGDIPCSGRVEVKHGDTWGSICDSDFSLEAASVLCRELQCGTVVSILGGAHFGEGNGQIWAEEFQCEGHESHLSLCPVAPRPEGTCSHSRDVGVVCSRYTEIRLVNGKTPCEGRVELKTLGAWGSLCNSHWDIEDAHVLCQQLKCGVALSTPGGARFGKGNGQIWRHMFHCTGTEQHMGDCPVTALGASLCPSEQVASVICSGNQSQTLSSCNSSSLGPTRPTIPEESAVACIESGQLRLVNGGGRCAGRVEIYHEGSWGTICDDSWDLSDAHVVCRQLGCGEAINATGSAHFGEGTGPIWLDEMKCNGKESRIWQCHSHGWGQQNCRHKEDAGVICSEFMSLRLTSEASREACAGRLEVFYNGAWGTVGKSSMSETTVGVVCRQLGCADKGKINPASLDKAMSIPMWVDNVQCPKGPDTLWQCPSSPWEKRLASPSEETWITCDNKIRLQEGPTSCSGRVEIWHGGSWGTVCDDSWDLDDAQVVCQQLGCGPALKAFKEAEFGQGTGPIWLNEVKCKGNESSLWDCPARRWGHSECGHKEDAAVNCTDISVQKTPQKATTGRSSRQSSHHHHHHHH
Sequence of purified recombinant human CD163 protein used for SPR (human) (Q86VB7 46-1050 limits assumed): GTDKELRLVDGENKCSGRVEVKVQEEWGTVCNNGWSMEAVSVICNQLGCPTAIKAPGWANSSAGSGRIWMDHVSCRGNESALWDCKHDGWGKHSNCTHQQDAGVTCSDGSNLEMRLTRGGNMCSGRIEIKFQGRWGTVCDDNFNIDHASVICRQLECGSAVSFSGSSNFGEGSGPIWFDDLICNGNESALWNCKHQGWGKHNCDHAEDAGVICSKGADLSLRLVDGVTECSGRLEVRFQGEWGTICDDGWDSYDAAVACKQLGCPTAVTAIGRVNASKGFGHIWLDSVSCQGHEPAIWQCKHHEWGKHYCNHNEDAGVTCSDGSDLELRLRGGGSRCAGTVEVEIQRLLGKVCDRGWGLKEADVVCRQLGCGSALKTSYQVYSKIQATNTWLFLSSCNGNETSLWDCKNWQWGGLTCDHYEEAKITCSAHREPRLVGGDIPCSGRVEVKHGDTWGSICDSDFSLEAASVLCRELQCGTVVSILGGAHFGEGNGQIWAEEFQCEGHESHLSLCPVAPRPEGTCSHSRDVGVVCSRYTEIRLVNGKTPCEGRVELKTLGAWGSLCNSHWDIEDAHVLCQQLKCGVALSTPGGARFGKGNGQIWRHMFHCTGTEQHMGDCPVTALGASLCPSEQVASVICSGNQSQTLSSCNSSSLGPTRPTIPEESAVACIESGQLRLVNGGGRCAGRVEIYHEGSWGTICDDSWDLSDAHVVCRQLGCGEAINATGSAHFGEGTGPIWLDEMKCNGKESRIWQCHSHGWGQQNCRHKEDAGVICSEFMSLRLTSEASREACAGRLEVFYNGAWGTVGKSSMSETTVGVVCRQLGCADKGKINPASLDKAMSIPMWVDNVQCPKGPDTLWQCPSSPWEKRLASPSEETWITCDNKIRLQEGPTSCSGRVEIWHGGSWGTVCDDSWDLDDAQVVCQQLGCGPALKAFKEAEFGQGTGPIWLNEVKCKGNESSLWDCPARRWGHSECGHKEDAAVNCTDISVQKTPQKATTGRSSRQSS
Sequence of truncated human CD163 ECD SRCR domain 1-5 fragment with C-terminus histidine tag (HEK293-6E) (human) (Q86VB7 42-578 limits assumed): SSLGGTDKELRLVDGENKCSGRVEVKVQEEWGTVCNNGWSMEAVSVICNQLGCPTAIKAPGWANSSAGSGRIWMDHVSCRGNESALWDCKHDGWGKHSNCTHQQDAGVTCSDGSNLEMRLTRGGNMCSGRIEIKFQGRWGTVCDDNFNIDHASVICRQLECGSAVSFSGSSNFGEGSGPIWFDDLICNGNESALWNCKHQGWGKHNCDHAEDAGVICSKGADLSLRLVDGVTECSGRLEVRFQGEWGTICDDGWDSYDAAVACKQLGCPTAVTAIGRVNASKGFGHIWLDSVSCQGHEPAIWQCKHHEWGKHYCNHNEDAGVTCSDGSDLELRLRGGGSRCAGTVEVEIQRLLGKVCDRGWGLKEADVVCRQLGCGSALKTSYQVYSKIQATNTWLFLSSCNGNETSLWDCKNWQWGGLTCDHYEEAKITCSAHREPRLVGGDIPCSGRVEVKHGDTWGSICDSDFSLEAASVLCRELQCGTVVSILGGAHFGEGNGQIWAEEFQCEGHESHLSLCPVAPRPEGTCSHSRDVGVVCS
Sequence of human CD163 expressed on human myeloid cells (M2c macrophages, M2 macrophages, in vitro MDSCs) (human) (Q86VB7 42-1114, tags or fused parts left off): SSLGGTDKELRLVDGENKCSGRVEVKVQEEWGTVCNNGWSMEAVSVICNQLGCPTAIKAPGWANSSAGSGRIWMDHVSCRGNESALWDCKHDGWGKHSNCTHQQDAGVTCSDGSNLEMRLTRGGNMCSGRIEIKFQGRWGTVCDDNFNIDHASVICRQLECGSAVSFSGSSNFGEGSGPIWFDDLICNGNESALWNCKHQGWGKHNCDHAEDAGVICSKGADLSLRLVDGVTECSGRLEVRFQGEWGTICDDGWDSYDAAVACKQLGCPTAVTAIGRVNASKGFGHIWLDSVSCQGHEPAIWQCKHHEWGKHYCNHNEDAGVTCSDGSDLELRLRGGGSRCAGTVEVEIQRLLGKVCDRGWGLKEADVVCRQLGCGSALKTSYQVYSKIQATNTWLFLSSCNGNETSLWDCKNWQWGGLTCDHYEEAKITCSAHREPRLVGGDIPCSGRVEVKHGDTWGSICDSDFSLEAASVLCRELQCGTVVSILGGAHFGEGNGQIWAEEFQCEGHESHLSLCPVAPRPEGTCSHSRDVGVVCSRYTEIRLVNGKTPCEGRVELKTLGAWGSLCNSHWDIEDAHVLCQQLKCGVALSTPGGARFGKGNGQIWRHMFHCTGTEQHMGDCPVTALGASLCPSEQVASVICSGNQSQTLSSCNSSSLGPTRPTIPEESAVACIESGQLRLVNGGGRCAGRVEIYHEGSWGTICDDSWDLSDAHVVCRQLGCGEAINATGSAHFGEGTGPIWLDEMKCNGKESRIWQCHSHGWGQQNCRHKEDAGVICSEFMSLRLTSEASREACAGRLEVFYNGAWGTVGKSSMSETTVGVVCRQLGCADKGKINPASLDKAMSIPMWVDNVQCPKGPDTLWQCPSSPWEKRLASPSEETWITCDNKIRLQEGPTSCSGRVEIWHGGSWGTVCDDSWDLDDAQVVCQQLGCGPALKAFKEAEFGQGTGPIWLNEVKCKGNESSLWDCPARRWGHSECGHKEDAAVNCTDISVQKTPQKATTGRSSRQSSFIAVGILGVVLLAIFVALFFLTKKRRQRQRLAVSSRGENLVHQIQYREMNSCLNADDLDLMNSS
Sequence of His-tagged recombinant human CD163 (R&D Systems, No. 1607-CD-050) (human) (Q86VB7 46-1050 limits assumed): as the sequence (Q86VB7 46-1050 limits assumed) above

EC50 [3]: 0.061 nM
Substance: RM3/1 (antibody)

EC50 (read off the curve) [4]: 10 nM
Substance: APC-labeled anti-huCD163 antibody (R&D Systems, #FAB1607A)

The next lines start with the substance.

Substance: 215927 (antibody)
Ratio SRCR 1-5/ECD (EC50) [1]: 1.17
EC50 [2]: 0.02 nM
EC50 [3]: 0.017 nM

Substance: EDHu-1 (antibody)
Ratio SRCR 1-5/ECD (EC50) [1]: 0.96
EC50 [2]: 0.05 nM
EC50 [3]: 0.052 nM

Substance: control anti-huCD163 antibody, murine IgG1 (R&D Systems, #MAB1607)
EC50 (read off the curve) [5]: 3 nM
EC50 (read off the curve) [6]: 0.01 nM

Substance: anti-CD163 clone GHI/61 (antibody)
Kd [7]: 12 nM
koff [7]: 0.000178 s⁻¹
kon [7]: 14800 M⁻¹ s⁻¹
Kd [8]: 63 nM
koff [8]: 0.000467 s⁻¹
kon [8]: 7320 M⁻¹ s⁻¹

Substance: commercially available rat anti-muCD163 antibody (Thermo Fisher Scientific #14-1631-82)
EC50 (read off the curve) [9]: 0.02 nM

Source: US20210253733A1
